# Experimental data: article PMC5716667
# Target: COPI coatomer (heptameric complex) (Chlamydomonas reinhardtii (endogenous in C. reinhardtii cells))
# Test: cryo-EM structure; in situ cryo-electron tomography of cryo-FIB milled vitrified C. reinhardtii cells, reference-free subtomogram averaging of the COPI triad with three-fold symmetry, 20 Å; PDB 5A1U fitted as a rigid body; separate averages of buds, vesicles and Golgi regions
substance,measurement,value
COPI coatomer (heptameric complex),stoichiometry N,3
